The test concerns the target T1, HLA-A*02:01 (human).
T1 construct: complexes captured on streptavidin plates and detected with anti-b2m; also called peptide-receptive MHC molecules
Kind of test: UV-exchange MHC ELISA; ++ = yield >=20%. An excerpt:
Candidate peptides for T cell based therapies according to the present invention were further tested for their MHC binding capacity (affinity). The individual peptide-MHC complexes were produced by UV-ligand exchange, where a UV-sensitive peptide is cleaved upon UV-irradiation, and exchanged with the peptide of interest as analyzed. Only peptide candidates that can effectively bind and stabilize the peptide-receptive MHC molecules prevent dissociation of the MHC complexes. To determine the yield of the exchange reaction, an ELISA was performed based on the detection of the light chain (β2m) of stabilized MHC complexes. The assay was performed as generally described in Rodenko et al. (Rodenko et al., 2006).
96 well MAXISorp plates (NUNC) were coated over night with 2 ug/ml streptavidin in PBS at room temperature, washed 4× and blocked for 1 h at 37° C. in 2% BSA containing blocking buffer. Refolded HLA-A*02:01/MLA-001 monomers served as standards, covering the range of 15-500 ng/ml. Peptide-MHC monomers of the UV-exchange reaction were diluted 100 fold in blocking buffer. Samples were incubated for 1 h at 37° C., washed four times, incubated with 2 ug/ml HRP conjugated anti-β2m for 1 h at 37° C., washed again and detected with TMB solution that is stopped with […]. Absorption was measured at 450 nm. […]
(In general: In an ELISA, binding on a coated surface is turned into a signal by an enzyme label.)

Consider ALLNAILHSA [ALLNAILHSA (SEQ ID NO: 132)], for which the peptide exchange yield was in the range of 20 to 50%.
